# Earlier results in paper PMC4652169.
# Molecular target: IgG Fc Fc (Homo sapiens) [IgG part: P01857]
# Test: given as Ka
substance,measurement,value
Protein A Z domain (ZWT) Z domain (from UniProt P02976),Kd,16.9 nM
